Experiment: label from the status in PepcDB records

Row | Sequence | protein production
1 | MQDQTEAVRFLSDPATHGGAPVERVETHGAFVFLAGSQAFKIKRAVRYDYMDLSTLALRHRMLARELELNRPAAPAIYRDLVAVTREPEGLALGGPGEPVEWVLRMWRFPAEDELSAVAERGALDDRLAARLGRSLAAYHRAAPVRSSDGAALVEAILDELGRVFAGMEDGLGAERIARFGTQARDMLARTKPLLRARSEAGRVRRGHGDLHLRNLVLIEGEPVPFDALEFDETLGTCDILYDLAFLLMDLDHRGLTRAAGIALAAWLFEMRGDEDGGLAALPLFLAVRAAIRGMVLVQTDAARGAPGHSDAEARGLLDEALRALSPPPPRLLAIGGVSGSGKTVLAAALAPRLGLPPGAIHLRSDLERKSRAGVPTDRRLGGAAYGEDARHAVYGQMLARAGAILAAGWPVILDATFLDPADRAAARALAAERGVPLEGLWLEAPPDLLVARVSTRRSDASDADEAVVRAQLARQPRAGDWRTLDTGRPPEEVAHSACRALGLD | failed
2 | MQDRCPHQDHRSIPTIMPDLEPDTVSALEAPEFAPAQFVRWFREVAPYVHAFRGKTFVVAFGGELVQAGALNVLVQDLSLLSALGIHLVLVHGSRPQVNEQLRLKGYTQQFGRGLAPTDPAALECAKEAAGEIRLDIEAAFSQGLPNTPMSHSHIRVLSGNFVTARPTGVVDGIDYKHTGQVRKIDVDALKFAIEQGSVVLLSPLGFSPTGDAFNLAMEDLATSVAVALRAEKLIFLSGEPGVLDGNGAVDTELARVDADALLARGELDEDTTYFLQHASLAVKRGVARAHLVPYALDGSVLLEIFTHDGVGTMVVEDTLDDLRAATLDDVGAILSLIEPLETDGTLVPRPRSAIERDVERFTVLEHDGVIYGCAALYPFPEDQMAEMACLIVHPEWQGSGEGEILLRHMESRARASGARRLFVLTTRTSHWFMKRGFVRGGVADLPRDKQNNYNRSRNSLVFIKKL | failed
3 | MQDSSSQHEPLWDRFGDLTVWKRGDQRAPHKPLLILYALGRLAQGDRWLRFSDIEEDLTDLLIEFGPPRQSHHPEYPFWHLRSDGVWVVPEADVLEMRQSASNPPKTELREKEARGGFSDDIHQAFRNDSELRRGIARLLLSSHFPTSLHEDIATAVSLDLEGAASERRDPEFRTQVLQAYQYRCAICGFNLQLGMSGTPIGVEAAHIKWKQARGPDEISNGIALCALHHKMLDKGALHVTEDLRLFVSEAVHGSQPHLSRLQDRHGNRIHTPQRETYYPNGEVVTWHVNEVFRGPPRV | failed
4 | MQEKIHWITNLRGIACMMVVMIHSTSWYITHPHAITLLQWDIANLLNSASRVSVPLFFMISGYLFFGERSAQPRHFWRIGLCIAFYSALSLLYITLFTHINVELSLKNLLQKPVFYHLWFFFAITVIYLLSPLLQVKSTSSTMLLALMAILGILANPNMVSVKAAGIEWLPVNLYINGDTFYYVLYGVLGRAIGTLDTDKKWLTPLCAALFIAAVWVISRGTLHELRWRGDFGDTWYLYCGPAVFVCAVTLLTLAKNWLNARPLPGIACIARHSLGIYGFHALIVHALRASHLELSRWPLLDIVWIFSAALLGSLLLSGLVQRIDSRRLVS | failed
5 | MQELSPAELGEQVQDDDGPLVLDIRHEEDFQEWHIPGSRNVDVYDELTDDPEQAIEPLDDLPSDEQIVTVCAAGVVSQTATAVLRELGYDAVTLTDGMNGWSRVHRHAELPVDVDGTLVQVARPGKGCLSHVLVSDGEAAVFDPSHYLNEYDTVLDEYDAELVGVFDTHAHADHVSGAADLADRHDVPYYLHQKDALAVDATPLEDGQTVTVGRLDIEVIHTPGHSEGSVSFDVEGAALLTGDTLFHDSVGRVELGVEAGIEDADVEGNAATLYESLQRLLDRPDDALVLPAHDPGSPEPPVAATLAEVRERNDDLGRDREAFVEELASDIPDHPPNFERVKRTNVGQESVPEEELAELELGPNNCAAE | failed
6 | MQEQRQQLLRSLEALIFSSEEPVNLQTLSQITAHKFTPSELQEAVDELNRDYEATGRTFRIHAIAGGYRFLTEPEFADLVRQLLAPVIQRRLSRSMLEVLAVVAWHQPVTKGEIQQIRGASPDYSIDRLLARGLIEVRGRADSPGRPLQYGTTEVFLDLFHLPSLKDLPKLREIKEILQEHEEQQYLAADGDLPVAADEDEKPRMERIE | not failed
7 | MQEQWGYVAISFIIGIAIAFSSSLLLIVFCLFLNVFFCLYRTSRKTFIFCIVACFSSVIYTSYVQTWNKPLGESYGVTRGVIQNTPLVNGDRLSFQFEDQNKNIVQLSYRIKSALEKKKMQQLYAGISCVFEGERKEPETARNFHGFNYRDYLYKQHIHFTFEATYISECYKTSLSLTQWILLLRQQAISKVTEMFPEQSGAFMNALLFGDRQQMTFEVEEQYQQFGLVHLLAISGSHIVLLMVIVYFILLRSGATREVATICLIVCIPLYMVLAGASPSVIRASITGVLMLIAFMCSIRLSSLDALSVTAICMLIYDPYLVFNIGFQFSFVGSFALLLSAPLLLGSSNGVIRNSIYISIISQLVSTPILLYHFGYFSPYSILLNLLYVPFLSIIVLPCSIIILLCMPIVPFLAKGFADVLSIGLSMSNDFLSYCESLPFTQLIFGETPLNLVAVYCASIVSILMVWERRAPKKIVCIVASVFLFISTCHYIYPYFRGSGSVTFIDVGQGDAILIRLPYDKGIYLIDTGGTLRVNKEEWQQKKHEFSVGNDVLIPFLQKEGIKTIDKLIVTHGDADHIGAAQELLSYIPVKEVVFGRKGKDAVLEKVVKKQALEKEMKITEVGEGASWSVNEAEFFVLAPKGKEKSENNASIVIWAKFGGLKWLFTGDLEEEGEKILVEAYPDLQVDVLKVAHHGSNTSSIEPFLNVMQPRVAIISVGKQNRYGHPHKEVIERFEKMGSAIWRTDKQGAISYVFKGENGTFKSKITYDKTHNR | failed
8 | MQESGCRLEHPSATKFRNHVMEGDWDKAENDLNELKPLVHSPHAIVVRGALEISQTLLGIIVRMKFLLLQQKYLEYLEDGKVLEALQVLRCELTPLKYNTERIHVLSGYLMCSHAEDLRAKAEWEGKGTASRSKLLDKLQTYLPPSVMLPPRRLQTLLRQAVELQRDRCLYHNTKLDNNLDSVSLLIDHVCSRRQFPCYTQQILTEHCNEVWFCKFSNDGTKLATGSKDTTVIIWQVDPDTHLLKLLKTLEGHAYGVSYIAWSPDDNYLVACGPDDCSELWLWNVQTGELRTKMSQSHEDSLTSVAWNPDGKRFVTGGQRGQFYQCDLDGNLLDSWEGVRVQCLWCLSDGKTVLASDTHQRIRGYNFEDLTDRNIVQEDHPIMSFTISKNGRLALLNVATQGVHLWDLQDRVLVRKYQGVTQGFYTIHSCFGGHNEDFIASGSEDHKVYIWHKRSELPIAELTGHTRTVNCVSWNPQIPSMMASASDDGTVRIWGPAPFIDHQNIEEECSSMDS | failed
9 | MQESVVRVDYDSLETCKNFKPSVGTELIVLEKDIAHARFKGNESMVYEENFVHAGFVLIACNYAALCALNKRHSVVVSNNINFYAPLELNQEALIKAQVIQDGVKKAEIKIEAFVLDIQVLEGMIEIVVFDKKPFKFNFKEE | failed
10 | MQETDNLLKTLNVKSLLEALLVYTPKGYKDLNLLERFETGLSGVLEVGILEKRNYAKVLKIFAYSKRFYKNLELVFFNYSAFHHSQFKTGESLFIYGKLEQSSFNQAYIINTPKIITKFGKISLIFKKVKNHKKIQENLQKLISLENLKKEGVKENIAHLLLEIFFPTPHFVKDFETNKNFPSQHLNALKYIEMLFYMKNLERKKLQFGAKIACPNNNERLKAFIASLPFKLTRDQQNAIKEIQNDLTSSIACKRLIIGDVGCGKTMVILASMVLTYPNKTLLMAPTSILAKQLYNEALKFLPPYFEVELLLGGSYKKRSNHLFETITHVVIGTQALLFDKRDLNEFALVITDEQHRFGTKQRYQLEKMASSKGNKPHSLQFSATPIPRTLALAKSAFVKTTMIREIPYPKEIETLVLHKRDFKIVMEKISEEIAKNHQVIVVYPLVNESEKIPYLSLSEGASFWQKRFKKVYTTSGQDKNKEEVIEEFRESGSILLATTLIEVGISLPRLSVMVILAPERLGLATLHQLRGRVSRNGLKGYCFLCTIQEENERLEKFADELDGFKIAELDLEYRKSGDLLQGGEQSGNSFEYIDLAKDENIIAEVKRDFLKAASVSRGTFEN | failed
11 | MQEVHDYGIKFWSNNEFKIEKGLVKVCHGKNPSLLEIVQSVRDKGYRGPLLVRFPHLVQKQIKSLFDAFSSAIKEYQYSGAFKAVFPLKVNQMPSFVFPLVQGAKGLNYGLEAGSKSELIIAMSYTNPKAPITVNGFKDKEMIELGFIAKSMQHEITLTIEGLNELKTIIAVAKQNEFLACPKIGIRIRLHSTGTGVWAKSGGINSKFGLSSTEVLEAMRLLEENDLLEHFHMIHFHIGSQISDISPLKKALREAGNLYAELRKMGAKNLNSVNIGGGLAVEYTQHKHHQDKNYTLEEFSADVVFLLREIVKNKQEIEPDIFIESGRYISANHAVLVAPVLELFSHEYNEKSLKIKENNNPPLIDEMLDLLANINEKNAIEYLHDSFDHTESLFTLFDLGYIDLIDRSNTEVLAHLIVKKAVQLLYVKDHNDILRIQEQVQERYLLNCSFFQSLPDYWGLRQNFPVMPLNKLDEKPTRSASLWDITCDSDGEIAFDSTKPLFLHDIDIDEEEYFLAFFLVGAYQEVLGMKHNLFTHPTEFSVVFDEKGDYEVEDICEAQTILDVLDDLDYDTKEIERLLKQKIEDNNQLDMEEKKEIMGRLYVMLSENGYLRTIS | failed
12 | MQFFTSDTHFFHKDLLGDSDFAPRPFASVDEMNQTIIDNWNARVAETDTVYHLGDIALYFTKPAIKSDEAVFNVLSQLNGHLELIKGNHDSRALFKYLAAHNFSDHGQPKFAFHDVGALIKYDHRQYYLTHYPMMLGIVNQIINLHGHIHHYAVPVKENINVGVDTPEQRYLTTSVPFGTPFSPTEIEQMVTGKAQEFREKQLEHHHHHH | failed
13 | MQFKNTPQRYGVVSAALHWLTALVVYGMFALGLWIVTLSYYDGWYHQAPEIHKSIGILLMMALIVRIIWRLYSPPPVALTSYSRLTRASAAAGHLLLYLLLFAIIISGYLISTADGKPISVFSWFEIPATLTDAGAQADIAGTLHLWFAWSLVIISLSHGVMALKHHFIDKDDTLKRMTGMSSSDYGAQK | failed
14 | MQGKKFISPGAWFSMNYPSDWNEFEDGEGSFLFYNPDVWTGNFRISAFKGNASYGKDAIRQELKENDSASLVKIGTWDCAYSKEMFQEEGTYYTSHLWITGTGNIAFECSFTVPKGGSAKEAEEVIATLEARKEGEKYPAELIPVRLSEIYQINEGYEWVVSTVKQELKKDFQGVEEDLEKIQQVIDSGKISPKKKDEWLAIGITVCAILTNEVEGMEWKTLIDGNREVPVLEYQGRTIDPMKIAWSKVKAGQPCNIAEAYQSAIDHH | not failed
15 | MQHTEERELKKRLMNTARTVSEMTEVKEALARKKQTEAVRHAVEEIRMINEADYIVVMDMNHIRYTHPVSTSIGKKSEGADEEAAFAEHIYFSEAKGEIGTAVRAFYPVKDQDLNQIGVVLVGKTLPGIADILLHLKRDI | failed
16 | MQIDHGSRQPYYAQIVTGIEQDIAHGVLQSGEQLPSVREMARQHLLNPNTVSKAYKRLETQQIIETVPGKGTYVKVVDSTLFRQELREQFTQIVRLAGQRGVSIAELHGWLDQMGEK | failed
17 | MQIPHGELRTLTYHSNALKSERQMYVWTPPGYSESSKPLPVLYFYHGFGDTGASAVVQGRIPQMMDNLLAEKKIEPMLVVIPDTETDVPGIIPEEYPPQERRKVFYPRNALAADRELIHDIIPAIGKRFNVRQDANGRALAGLSQGGYQALVSGMSHLDHFGWLATFSGVTTETVPNMAVAAQLERPEQINQQLKNLTVVIGETDNITGKDIAGLKTMLEQKNIRFDYTHYPNLGHEMDVWRPAYSEFVQKLFKLEHHHHHH | not failed
18 | MQIQQMLENRIEELEMKIAFQEQLLDELNHALVQQQFDIDKMQVQLRYMANKLKDFQSSNIASQSEETPPPHY | not failed
19 | MQIRLAFPNEIDQIMLLIEEARAEIAKTGSDQWQKEDGYPNRNDIIDDILNGYAWVGIEDGMLATYAAVIDGHEEVYDAIYEGKWLHDNHRYLTFHRIAISNQFRGRGLAQTFLQGLIEGHKGPDFRCDTHEKNVTMQHILNKLGYQYCGKVPLDGVRLAYQKIKEKGETSIYREIDERNPM | not failed

Reference: a protein production outcome set (Wang et al. 2014)
